Data on 15 sequences can be found in the DeepSol protein solubility set.

The data set can be described thus: soluble on expression in E. coli; label from the status in PepcDB or PDB records.
Regarding “MDDHNALLAERHTIFQSSLMTALLDGIYDGEISIGELLGHGNFGIGTFDALDGEMVILDGVCYQLRGDGSASEAALTQRSPFAIATNFVPRLKARVPRGMHRSELSDFITSLLPSENYMYAVRISGMFSSVSVRTVTKQERPYRPMTQATGDDAELEFTNVSGVVAGFRTPIYEKGIGVPGCHVHFIDTDRTSGGHVLDFTMSEGTIEVCPGTDLQLRLPLTQDFSKASLAPDDLDAQIHATEVKG”, the “soluble on expression in E. coli” value is reported as “not soluble”.
Next, “MPAKDVQICPIAVDTTVFRSRTWDRLKFEIEYGLQRGTTANSYLISADKIALFDPPGESFTDNFVGTLIQRLDLNSLDYVILGHVNANRAHTLKLLLSLAPQATIICSNPAAQNLEKLLADAEVNNPIQVMKGNDHLDLGRGHELTFIPTPSPRYPGQLCTYDPRTEILFTDKLFGAHVCGDQVFDEGWTIYQEDRRYYFDCLLAPAAAQVSAALNKLEAYPAQTYAPSHGPLVRYGLRELTRNYQQWLSEQQAQALEHHHHHH”: “not soluble”; “MGSDKIHHHHHHMGNPSWINVFALVDYRSSSDTLYRVEEGLIPLETFDEINSGDPVVLSSFLNAYRGEDLSLLVIWNHGDWWRGESQKQVKGVAYDFVNLDFFTIKEIKSVLRDSPVTVLGFDACLMGTFEILWELKDCARYVVVSSKEAPGNGWDYSVLRYSKDLSSLLSNIVKRYGEIYGTEYSLSVWDTSKLDEIMLWLDRVAQYMIENNLSPWEFEVERRTAGGSTTELVELGSFAKSLQNSSDVVLREYGEGLYSAIVSARVYGTPDNYTDLTIYLPQNMKNPEYWDDFVALSDFTSESSWDDLIEHWRDKN”: “not soluble”.
In the case of “MPTDKEGDFIDPKEQEESLENIFSSLNDFQEKTDANAQKNEQKNEQEEEQRRLKEQQRLRKNQKNQEMLKGLQQNLNQFAQKLESVKNKTLDLQIPKQDGVDEKAYQEWYAQIYQILYKGWKGVFYHKASVSALIMIAKDGEFDYTILSYSDFKDYNKSVMTLLNDLKKVDFPPYPGGSMISIQVNFTTKEEQ”, the “soluble on expression in E. coli” value was “not soluble”.
Consider “MSLHRLNLNGYEPDRHHEAAVAFCIHAGTDELTSPVHQHRKGQLILALHGAITCTVENALWMVPPQYAVWIPGGVKHSNQVTANAELCFLFIEPSAVTMPTTCCTLKISPLCRELILTLANRTTTQRAEPMTRRLIQVLFDELPQQPQQQLHLPVSSHPKIRTMVEMMAKEPVEWGSLGQWAGFFAMSERNLARLIVKETGLSFRQWRQQLQLIMALQGLVKGDTVQKVAHTLGYDSTTAFITMFKKGLGQTPGRYIAGLTTVSPQSAKPDPREGHHHHHH”, for which the “soluble on expression in E. coli” value is reported as “soluble”.
Regarding “MGDTFIRHIALLGFEKRFIPSQHYVYMFLVKWQDLSEKVVYRKFTEIYEFHKMLKEMFPIEAGEIHTENRVIPHLPAPRWFDGQRAAESRQGTLTEYFNGLMGLPVKISRCPHLLDFFKVRPDDLKLPTDSQAKKPETYLVPKDGKNNVADITGPIILQTYRAIADYEKSSGTEMTVATGDVVDVVEKSESGWWFCQMKTKRGWVPASYLEPLDSPDEAEDPDPNYAGEPYVTIKAYAAVEEDEMSLSEGEAIEVIHKLLDGWWVVRKGDITGYFPSMYLQKAGEEITQAQRQIRGRGAPPRRSTIRNAQSIHQRSRKRLSQDTYRRNSVRFLQQRRRPGRPGPLSTDGTKDNPSTPRVKPQPAVPPRPSSDLILHRCTESTKRKLTSAV”, the “soluble on expression in E. coli” value is “soluble”.
The value for “MRILTLGLDGSGEFAFQSHAHTDHFANGRLIFATRPTIFLSHLRNSRYYIPVDFGKKFYIGDFKAKLYPSGHILGSSGIKIWLDEGTLYYTGDVKVKKLRTVERAKLPKADFLIIESTFGLPRFTFPDPRESEKVIIGIVEDLIDRGKVPTFMANPYGKAQEIIKILNVHGYSVSVDREIAKVSKFYMKFGVRLKFEKEGEVKVSSSKGISVSGFGRIKLSNHADFWELLEIVERVNPEKVFTVYGHAEAFAKILNGLGYEAKSIRRNQKLEVWLEHHHHHH” was “not soluble”.
Next, “MNLRTQKFHMYFKQWIELYKEGAVRPVTYQKYQMSHKHLVTLAPDLHMDELKRRTYQELINEFAANHEKQTTLDFHHHLKAAILDALDEGILEQDPTRKVLEHHHHHH”: “not soluble”.
As to “MPTYEELSQAVFEGDEAQVVELTRSLLSGGAEPLEVINKGLIAGMDRVGVLFKNNEMFVPEVLMSANAMNAGVEVVKQSQQAFDMPSVGKIVLGTVKGDLHDIGKNLVAMMLESGGFTVYNLGVDIEPGKFVEAVKKYQPDIVGMSALLTTTMMNMKSTIDALIAAGLRDRVKVIVGGAPLSQDFADEIGADGYAPDAASATELCRQLLE”, the “soluble on expression in E. coli” value is on record as “soluble”.
“ASMTGGQQMGRGSASLPACPEESPLLVGPMLIEFNMPVDLELVAKQNPNVKMGGRYAPRDCVSPHKVAIIIPFRNRQEHLKYWLYYLHPVLQRQQLDYGIYVINQAGDTIFNRAKLLNVGFQEALKDYDYTCFVFSDVDLIPMNDHNAYRCFSQPRHISVAMDKFGFSLPYVQYFGGVSALSKQQFLTINGFPNNYWGWGGEDDDIFNRLVFRGMSISRPNAVVGTTRHIRHSRDKKNEPNPQRFDRIAHTKETMLSDGLNSLTYQVLDVQRYPLYTQITVDIGTPS”: the “soluble on expression in E. coli” value is on record as “soluble”.
With “MKVLCYGVRDVELPIFEACNKEFGYDIKCVPDYLNTKETAEMAAGFDAVILRGNCFANKQNLDIYKKLGVKYILTRTAGTDHIDKEYAKELGFPMAFVPRYSPNAIAELAVTQAMMLLRHTAYTTSRTAKKNFKVDAFMFSKEVRNCTVGVVGLGRIGRVAAQIFHGMGATVIGEDVFEIKGIEDYCTQVSLDEVLEKSDIITIHAPYIKENGAVVTRDFLKKMKDGAILVNCARGQLVDTEAVIEAVESGKLGGYGCDVLDGEASVFGKDLEGQKLENPLFEKLVDLYPRVLITPHLGSYTDEAVKNMVEVSYQNLKDLAETGDCPNKIK”, the “soluble on expression in E. coli” value is reported as “soluble”.
Consider “MQKFILSAFVVALVAADCALKCPDGYFSFKRAPSAKNSMTGLWCVKAILSDTLISPNQAKQVCEKDGSILTSFENLDERTKLATVLRDFLSAKKLDRGGMIVDGHRLKNCETDDRTVLNAEPCRNSSTGFTTDEKHTDNTFMWKSWADTEPGQSIFEKQIESCLQLAISQFKSRTELINDVFCNYVKHPQNEGAYDLWNYGAVCGRLPEWN”, for which the “soluble on expression in E. coli” value is “not soluble”.
Next, “MIAILTDKPNVGKEIARILGAHTREDGYMSGNGYMVTWTFGNMLSLAMPKDYGMDRPERGDFPINPAPFRLMVKHIKTDTGWIPDINAVLQLKVIEKVFDACESIIAATDASREGEMVFRYLYRYLECRKSYRRLWISSLTDEAVLEGMDNLRPGSLYDHMFLAADSRNKADWVLGLNASYALCQATGTGNNSLGRVQTPILAAISSRYRERENHIATDTFPVFISLCKNNTLLKMRCTEEFTDREAAARLYSDCKLAGHARVTAVSRQVREIEPPALYNLTELQKDANNYYGMTAGKSLEIAQKLYEKKLISYPRTAGRFLPRDVYDKLPRIMEKILNRKEFRPYVRSMGINIFDLPDKVVDEGQAAEHHAIIITDTYPEGLNREEMQLYMMIIGRMLEAFMPVCRAEYTTVDAVCAARNFRCHACRIIEKGWFGIFERESVIAGREYGFSPIPQLENGETAAVTGCSLIHRKDLTVSAYTDAELITYMDTAGLGTAATRTGILQTLIDRKYVRYSGKYIIPTRKGLYIYETVRNMKIAETALTSGWEAQLARMERGKLTQEEFMKGVLKLSREVTEDIFRKCER”: “not soluble”.
The value for “MSLTDVEEQQLTVLKDPNCGCCEKWLQALPDSFSVSVQHPNNLTQRKRDSGISAEVQSCHTAISSNGYVFEGHVPPTLVSHYLAGKKSENGIGLTVPGMPVGSVGMEMGTRFQPYTVYEIKKDGSITPYQQIASLEQQQALSNEGLEGHHHHHH” was “soluble”.
Next, “MAHHHHHHMRASTPPLYQRQPEGLAPSYNTGLPLAMPDVPTLRIPQHLSATSHAMPPTAAAQGEFVMAATAPRLGSLETSTRATNPAPFITQFPAAQAPNLHGYVSASPRTSGTGTETSASDYFRYAANLMRNTLPPPMTELAALEEEEKSLKREEEELRPQIIELERMREQLEEQTQKVAVELMQMVVLEQQYYVEPIVDYTAQIKNAEVQCVHLASRVEEAKHSLEELQRQHQSYDAVMEEKERLKKETCAVRERFATLENRRRLCMLQSEALFDVESRRGEEAASQAEETENQLMEMRNNEPLLGIKRSRRSSRSMSRGVSFAQKSIVLDTGSDGDDDGYARSTRHTGDTVSGLTQRGSWNSAGAEDEESEQDCDRDDICGISGQSVRYSLNDTKRVQLVVPAV”: “not soluble”.
